{"source": "the supplement of paper PMC10567573", "parents": {"B1": {"name": "MMP1 (parent)", "chain": "FVRGDHRDNSPFDGPGGNLAHAFQ"}, "B2": {"name": "FCHSD1 (parent)", "chain": "LQEPGVFSPTPPQQFQPAGTDQVC"}}}
{"variants_of": "B1", "assay": "protein stability index of a GFP-peptide fusion (GPS, HEK-293T) (PSI 1-6); higher = more stable", "conditions": "c terminus: a fixed tail appended"}
{"variant": "F1L", "protein stability index": 3.52}
{"variant": "F1I", "protein stability index": 2.82}
{"variant": "F1H", "protein stability index": 3.28}
{"variant": "F1V", "protein stability index": 2.83}
{"variant": "F1K", "protein stability index": 3.56}
{"variant": "F1Y", "protein stability index": 1.81}
{"variant": "F1E", "protein stability index": 3.97}
{"variant": "F1D", "protein stability index": 4.41}
{"variant": "F1G", "protein stability index": 3.33}
{"variant": "F1T", "protein stability index": 3.78}
{"variant": "F1W", "protein stability index": 2.48}
{"variant": "F1Q", "protein stability index": 4.01}
{"variant": "F1S", "protein stability index": 3.33}
{"variant": "F1P", "protein stability index": 3.59}
{"variant": "F1C", "protein stability index": 2.64}
{"variant": "F1M", "protein stability index": 3.32}
{"variant": "F1N", "protein stability index": 3.66}
{"variant": "F1A", "protein stability index": 3.67}
{"variant": "F1R", "protein stability index": 3.36}
{"variant": "G4H", "protein stability index": 2.26}
{"variant": "G4R", "protein stability index": 1.56}
{"variant": "G4T", "protein stability index": 2.52}
{"variant": "G4S", "protein stability index": 2.41}
{"variant": "G4A", "protein stability index": 2}
{"variant": "G4C", "protein stability index": 2.67}
{"variant": "G4K", "protein stability index": 1.57}
{"variant": "G4L", "protein stability index": 1.68}
{"variant": "G4E", "protein stability index": 1.76}
{"variant": "G4N", "protein stability index": 2.04}
{"variant": "G4F", "protein stability index": 2.06}
{"variant": "G4I", "protein stability index": 1.64}
{"variant": "G4Q", "protein stability index": 2.42}
{"variant": "G4P", "protein stability index": 1.73}
{"variant": "G4D", "protein stability index": 3.02}
{"variant": "V2E", "protein stability index": 3.97}
{"variant": "V2Y", "protein stability index": 3.15}
{"variant": "V2C", "protein stability index": 1.63}
{"variant": "V2G", "protein stability index": 3.03}
{"variant": "V2M", "protein stability index": 3.03}
{"variant": "V2H", "protein stability index": 2.37}
{"variant": "V2D", "protein stability index": 3.58}
{"variant": "V2L", "protein stability index": 3.03}
{"variant": "V2I", "protein stability index": 1.92}
{"variant": "V2R", "protein stability index": 3.48}
{"variant": "V2A", "protein stability index": 1.66}
{"variant": "V2T", "protein stability index": 3.07}
{"variant": "V2N", "protein stability index": 3.53}
{"variant": "V2P", "protein stability index": 2.85}
{"variant": "V2Q", "protein stability index": 2.75}
{"variant": "V2S", "protein stability index": 2.76}
{"variant": "V2F", "protein stability index": 2.61}
{"variant": "V2W", "protein stability index": 2.25}
{"variant": "V2K", "protein stability index": 3.1}
{"variant": "R3E", "protein stability index": 2.73}
{"variant": "R3H", "protein stability index": 1.85}
{"variant": "R3Y", "protein stability index": 1.93}
{"variant": "R3S", "protein stability index": 1.99}
{"variant": "R3L", "protein stability index": 2.13}
{"variant": "R3W", "protein stability index": 1.86}
{"variant": "R3T", "protein stability index": 2.13}
{"variant": "R3M", "protein stability index": 1.57}
{"variant": "R3G", "protein stability index": 1.3}
{"variant": "R3C", "protein stability index": 3.82}
{"variant": "R3D", "protein stability index": 1.73}
{"variant": "R3P", "protein stability index": 1.44}
{"variant": "R3K", "protein stability index": 1.45}
{"variant": "R3I", "protein stability index": 2.11}
{"variant": "R3F", "protein stability index": 1.69}
{"variant": "R3V", "protein stability index": 2.37}
{"variant": "R3N", "protein stability index": 2.34}
{"variant": "R3A", "protein stability index": 1.63}
{"variant": "R3Q", "protein stability index": 1.71}
{"variants_of": "B2", "assay": "protein stability index of a GFP-peptide fusion (GPS, HEK-293T) (PSI 1-6); higher = more stable", "conditions": "c terminus: a fixed tail appended"}
{"variant": "Q13F", "protein stability index": 3.8}
{"variant": "Q13W", "protein stability index": 3.17}
{"variant": "Q13K", "protein stability index": 3.78}
{"variant": "Q13N", "protein stability index": 4.11}
{"variant": "Q13G", "protein stability index": 3.89}
{"variant": "Q13I", "protein stability index": 3.6}
{"variant": "Q13D", "protein stability index": 4.55}
{"variant": "Q13V", "protein stability index": 4.26}
{"variant": "Q13S", "protein stability index": 4.16}
{"variant": "Q13C", "protein stability index": 4.04}
{"variant": "Q13M", "protein stability index": 3.96}
{"variant": "Q13Y", "protein stability index": 3.74}
{"variant": "Q13R", "protein stability index": 4.07}
{"variant": "Q13E", "protein stability index": 3.75}
{"variant": "P11T", "protein stability index": 4.31}
{"variant": "P11F", "protein stability index": 3.49}
{"variant": "P11L", "protein stability index": 3.89}
{"variant": "P11D", "protein stability index": 4.5}
{"variant": "P11K", "protein stability index": 3.62}
{"variant": "P11E", "protein stability index": 4.69}
{"variant": "P11N", "protein stability index": 4.38}
{"variant": "P11Q", "protein stability index": 4.26}
{"variant": "P11M", "protein stability index": 4.17}
{"variant": "P11C", "protein stability index": 2.16}
{"variant": "P11R", "protein stability index": 3.9}
{"variant": "P11V", "protein stability index": 4.43}
{"variant": "P11A", "protein stability index": 4.41}
{"variant": "P11H", "protein stability index": 4.09}
{"variant": "P11I", "protein stability index": 4.04}
{"variant": "P11S", "protein stability index": 3.73}
{"variant": "P11Y", "protein stability index": 3.65}
{"variant": "P11W", "protein stability index": 3.41}
{"variant": "P11G", "protein stability index": 4.25}
{"variant": "Q22W", "protein stability index": 2.94}
{"variant": "P9R", "protein stability index": 4.26}
{"variant": "P9L", "protein stability index": 4.56}
{"variant": "P9S", "protein stability index": 4.14}
{"variant": "P9Q", "protein stability index": 4.65}
{"variant": "P9W", "protein stability index": 3.67}
{"variant": "P9G", "protein stability index": 4.38}
{"variant": "P9H", "protein stability index": 4.29}
{"variant": "P9Y", "protein stability index": 3.81}
{"variant": "P9D", "protein stability index": 4.69}
{"variant": "P9A", "protein stability index": 4.57}
{"variant": "P9K", "protein stability index": 4.31}
{"variant": "P9M", "protein stability index": 4.38}
{"variant": "P9V", "protein stability index": 4.3}
{"variant": "P9F", "protein stability index": 4.14}
{"variant": "P9C", "protein stability index": 4.26}
{"variant": "P9E", "protein stability index": 4.7}
{"variant": "P9T", "protein stability index": 4.69}
{"variant": "P9I", "protein stability index": 4.03}
{"variant": "P9N", "protein stability index": 4.04}
{"variant": "F15G", "protein stability index": 4.68}
{"variant": "F15C", "protein stability index": 4.17}
{"variant": "T20L", "protein stability index": 3.61}
{"variant": "A18W", "protein stability index": 2.99}
{"variant": "T10R", "protein stability index": 3.54}
{"variant": "T10L", "protein stability index": 4.16}
{"variant": "T10F", "protein stability index": 3.5}
{"variant": "T10S", "protein stability index": 4.34}
{"variant": "T10I", "protein stability index": 3.65}
{"variant": "T10H", "protein stability index": 4.17}
{"variant": "T10G", "protein stability index": 4.16}
{"variant": "T10M", "protein stability index": 3.82}
{"variant": "T10A", "protein stability index": 4.56}
{"variant": "T10C", "protein stability index": 3.52}
{"variant": "T10K", "protein stability index": 4}
{"variant": "T10N", "protein stability index": 3.98}
{"variant": "T10E", "protein stability index": 4.38}
{"variant": "T10Q", "protein stability index": 4.21}
{"variant": "T10V", "protein stability index": 3.96}
{"variant": "T10D", "protein stability index": 4.67}
{"variant": "T10Y", "protein stability index": 3.38}
{"variant": "T10W", "protein stability index": 3.35}
{"variant": "P12S", "protein stability index": 4.46}
{"variant": "P12F", "protein stability index": 3.48}
{"variant": "P12V", "protein stability index": 3.69}
{"variant": "P12I", "protein stability index": 4.11}
{"variant": "P12N", "protein stability index": 4.33}
{"variant": "P12Q", "protein stability index": 4.45}
{"variant": "P12E", "protein stability index": 4.82}
{"variant": "P12K", "protein stability index": 4.05}
{"variant": "P12H", "protein stability index": 4.23}
{"variant": "P12R", "protein stability index": 4.33}
{"variant": "P12Y", "protein stability index": 3.66}
{"variant": "P12C", "protein stability index": 4.02}
{"variant": "P12G", "protein stability index": 4.5}
{"variant": "P12M", "protein stability index": 4.09}
{"variant": "P12D", "protein stability index": 5.07}
{"variant": "P12L", "protein stability index": 3.96}
{"variant": "P12W", "protein stability index": 3.5}
{"variant": "Q16L", "protein stability index": 3.93}
{"variant": "Q14G", "protein stability index": 2.86}
{"variant": "Q14V", "protein stability index": 4.1}
